Measurements taken from PMC4638040.
Substitutions are numbered along the chain they refer to. In names and notes the source's numbering stands. Values belong to the binder of their own block, whether it stands above or below them.

Key:
[1] = molecular target: T1, Carboxy-terminus of Hsc70-interacting protein (CHIP), His-tagged, wild type, Q9UNE7; assay: competition binding assay on microtitre wells (luminometer, anti-CHIP antibody); details: chain shown with the change; signal is His-CHIP wt remaining bound to immobilized GST-IRF-1 in the presence of 5 uM peptide (highest dose); lower signal = more competition by the peptide …; parent: est. 0.05; read off a plot
T1 chain: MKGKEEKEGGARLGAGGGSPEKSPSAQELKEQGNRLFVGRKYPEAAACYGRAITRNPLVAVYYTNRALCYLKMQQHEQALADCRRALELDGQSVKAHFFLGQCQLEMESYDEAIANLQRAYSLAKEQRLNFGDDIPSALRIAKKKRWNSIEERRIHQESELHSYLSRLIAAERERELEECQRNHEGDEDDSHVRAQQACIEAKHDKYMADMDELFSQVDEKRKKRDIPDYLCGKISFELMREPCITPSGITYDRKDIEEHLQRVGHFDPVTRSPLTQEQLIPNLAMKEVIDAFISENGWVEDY

[2] = molecular target: T2, Carboxy-terminus of Hsc70-interacting protein (CHIP), untagged, K30A mutant (human), Q9UNE7; assay: SEC + other: dynamic light scattering; purified CHIP-K30A; supplemental Fig. S2C, S2D (not shown); details: remark: other sources report otherwise
T2 chain: T1 chain with K30A

- response [1]: 1.2 RLU
Binder: SGSGGAAAEEVD

- stoichiometry N [2]: 2
B1: Carboxy-terminus of Hsc70-interacting protein (CHIP), untagged, K30A mutant, Q9UNE7 1-303 (enzyme)
chain: T1 chain with K30A
